Assay results taken from PMC9995517 (2023).
Substitutions are numbered along the chain they refer to. Names may count otherwise.

B1: tyrosyl-tRNA synthetase E196K (CMT-causing mutant), recombinant Xpress-6xHis tagged (His-YARS1^E196K) (enzyme)
chain: MGDAPSPEEKLHLITRNLQEVLGEEKLKEILKERELKIYWGTATTGKPHVAYFVPMSKIADFLKAGCEVTILFADLHAYLDNMKAPWELLELRVSYYENVIKAMLESIGVPLEKLKFIKGTDYQLSKEYTLDVYRLSSVVTQHDSKKAGAEVVKQVEHPLLSGLLYPGLQALDEEYLKVDAQFGGIDQRKIFTFAKKYLPALGYSKRVHLMNPMVPGLTGSKMSSSEEESKIDLLDRKEDVKKKLKKAFCEPGNVENNGVLSFIKHVLFPLKSEFVILRDEKWGGNKTYTAYVDLEKDFAAEVVHPGDLKNSVEVALNKLLDPIREKFNTPALKKLASAAYPDPSKQKPMAKGPAKNSEPEEVIPSRLDIRVGKIITVEKHPDADSLYVEKIDVGEAEPRTVVSGLVQFVPKEELQDRLVVVLCNLKPQKMRGVESQGMLLCASIEGINRQVEPLDPPAGSAPGEHVFVKGYEKGQPDEELKPKKKVFEKLQADFKISEECIAQWKQTNFMTKLGSISCKSLKGGNIS
B2: tyrosyl-tRNA synthetase, wild type, recombinant Xpress-6xHis tagged (His-YARS1^WT) (enzyme)
chain: B1 chain with K196E

Target: F-actin (preassembled filaments of rabbit skeletal muscle actin) (rabbit, UniProt P68135 1-377)

| Binder | Kd [nM] |
| --- | --- |
| B1 | 800 |
| B2 | 750 |
